This passage reports Kd, koff and kon results from patent US20220064327A1 (KYMAB, published 2022).

Where a chain is given by its changes, count along the chain named.

Assay [1] deals with T1, human factor IX (human, UniProt P00740 47-461, 12 glutamic acid residues of the GLA domain are post-translationally γ-carboxylated).
T1 construct: Zymogen used as analyte in SPR, reconstituted at 1 mg/ml; also called FIX; Human FIX (MW ~55 KDa)
Nature of the assay: SPR as in Example 10, human FIX as analyte. Here is the method:
(§1) Monospecific antibodies (referred as ligand) which had been purified on Protein A were captured onto the anti-human IgG Fc CM4 surface at approximately 2 μg/ml. The ligands were injected for 60 seconds at 10 μl/min in all the active channels of all 8 flow channels. The run was performed at 25° C. using neutral pH HBS-P 1X+CaCl₂ 2.5 mM as running buffer.
(§2) Human FIX (MW ˜55 KDa) or human FX (MW ˜58 KDa) was reconstituted at 1 mg/ml in the running buffer and used as analyte. The analyte was injected in multiple cycle kinetics (MCK) mode at 3 concentrations (1.5 μM, 500 nM and 166.7 nM) with 120 seconds association phase and 200 seconds (for FIX) or 300 seconds (for FX) dissociation phase, at flow rate […] in both active and reference channels. Three injections of 10 mM Glycine pH 1.5 for 60 sec. at 10 μl/min were used for the regeneration phase.
(§3) Affinity and kinetics of purified anti-FIX and anti-FX antibodies for binding to their respective antigens was determined by SPR as described in Example 10 above.

Assay [2] has as its target T1, human factor IX. Nature of the assay: SPR, IgG captured on anti-human IgG Fc, human FIX as analyte. Here is the method: (§4) SPR was used to determine the binding affinity (KD) to FIX or FX respectively, the kinetic constants on-rate (kₒₙ) and off-rate (koff). Analyses was performed using a Biacore 8K (GE Healthcare) system.
as §1, §2

Assay [3] deals with T2, human factor X (human, UniProt P00742 41-179; P00742 183-488).
T2 construct: Zymogen used as analyte in SPR; also called FX; Human FX (MW ~58 KDa)
T2 sequence (P00742 41-179, chain 1 of 2): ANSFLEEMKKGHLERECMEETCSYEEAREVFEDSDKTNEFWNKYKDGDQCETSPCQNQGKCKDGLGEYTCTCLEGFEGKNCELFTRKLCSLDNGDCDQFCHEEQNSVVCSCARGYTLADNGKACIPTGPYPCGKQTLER
T2 sequence (P00742 183-488, chain 2 of 2): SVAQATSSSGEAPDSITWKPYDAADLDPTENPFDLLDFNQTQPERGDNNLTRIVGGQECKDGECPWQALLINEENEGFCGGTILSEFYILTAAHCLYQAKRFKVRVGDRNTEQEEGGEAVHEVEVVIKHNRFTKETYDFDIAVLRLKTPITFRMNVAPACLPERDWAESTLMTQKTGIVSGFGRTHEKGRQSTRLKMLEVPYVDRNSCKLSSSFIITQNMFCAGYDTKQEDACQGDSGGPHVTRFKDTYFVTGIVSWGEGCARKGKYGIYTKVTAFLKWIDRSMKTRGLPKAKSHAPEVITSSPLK
In words: SPR, IgG captured on anti-human IgG Fc, human FX as analyte. Here is the method: as §4, §1, §2

Assay [4] deals with T2, human factor X. Nature of the assay: SPR as in Example 10, human FX as analyte. Here is the method: as §1, §2, §3
Assay [5] has as its target T2, human factor X. Nature of the assay: SPR as in Example 10, human FX as analyte. The source holds these as a separate data set.

T1 sequence (P00740 47-461 limits assumed): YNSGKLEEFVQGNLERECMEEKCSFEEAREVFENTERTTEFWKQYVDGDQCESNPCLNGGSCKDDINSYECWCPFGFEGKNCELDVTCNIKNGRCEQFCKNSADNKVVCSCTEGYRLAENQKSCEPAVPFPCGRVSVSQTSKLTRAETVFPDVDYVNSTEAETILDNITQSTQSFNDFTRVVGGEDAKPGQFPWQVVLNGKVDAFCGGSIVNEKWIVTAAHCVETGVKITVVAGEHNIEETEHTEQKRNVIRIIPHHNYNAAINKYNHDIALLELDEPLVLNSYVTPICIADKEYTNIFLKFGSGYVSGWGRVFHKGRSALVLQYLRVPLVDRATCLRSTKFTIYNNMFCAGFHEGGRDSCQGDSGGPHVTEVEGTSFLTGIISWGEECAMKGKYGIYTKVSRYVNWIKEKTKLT

B1: NINA-0128 (antibody, V domains shown)
VH: EVQLVESGGGFVQPGGSLRLSCAVSGFTFNSYWMSWVRQAPGKGLEWVANINQDGSEKFYVASVKGRFTMSRDNAKKSVYVQMNSLRAEDTAVYYCAREGYSSSSYYGMDVWGQGTTVTVSS
VL: SYVLTQPPSVSVAPGETARITCGGDNIGRKSVYWYQQKSGQAPVLVIYYDSDRPSGIPERFSGSNSGNTATLTISRVEAGDEADYYCQVWDGSSDHWVFGGGTKLTVL
In the assay with human factor IX [1], B1 came in with a Kd of 359 nM, an off-rate (koff) of 0.0492 s⁻¹ and a kon of 137000 M⁻¹ s⁻¹. In the assay with human factor IX [2], this molecule yielded a dissociation constant (Kd) of 198 nM, an off-rate constant (koff) of 0.0576 s⁻¹ and a kon of 292000 M⁻¹ s⁻¹.

B2: TINA-0215.0128 (antibody, V domains shown)
VH: QVQLVQSGAEVKKPGASVKVSCKASRYSFTSYYMHWVRQAPGQGLEWMGIINPKSGSTSYAQKFQGRVTMTRDTSTSTVYMELSSLRSEDTAVYYCARDGYGSSSRCLQLWGQGTLVTVSS
VL: B1 VL
notes: Monospecific IgG4PE
As to B2, in the assay with human factor X [3], the Kd is 1150 nM, the koff was found to be 0.0787 s⁻¹ and the kon was found to be 68400 M⁻¹ s⁻¹.

B3: TINA-0206.0128 (antibody, V domains shown)
VH: B2 VH with S57D, E82D, S105A
VL: B1 VL
notes: Monospecific IgG4PE
Turning to B3, in the assay with human factor X [3], the Kd came out at 992 nM, the koff was 0.0667 s⁻¹ and the kon stood at 67200 M⁻¹ s⁻¹.

B4: TINA-0217.0128 (antibody, V domains shown)
VH: B2 VH with K12T
VL: B1 VL
notes: Monospecific IgG4PE
In the assay with human factor X [3], B4 came in with a dissociation constant Kd of 564 nM, a koff of 0.0574 s⁻¹ and an association rate constant (kon) of 102000 M⁻¹ s⁻¹.

B5: TINA-0207.0128 (antibody, V domains shown)
VH: B2 VH with P14T
VL: B1 VL
notes: Monospecific IgG4PE
In the assay with human factor X [3], B5 returned a dissociation constant (Kd) of 847 nM, a koff of 0.141 s⁻¹ and a kon of 166000 M⁻¹ s⁻¹.

B6: NINA-0436.0128 (antibody, V domains shown)
VH: B1 VH with S104I
VL: B1 VL
In the assay with human factor IX [1], B6 returned a Kd of 359 nM, a koff of 0.0523 s⁻¹ and a kon of 146000 M⁻¹ s⁻¹. For the same molecule, in the assay with human factor IX [2], the Kd turned out to be 184 nM, the koff amounted to 0.0453 s⁻¹ and the on-rate constant (kon) came to 246000 M⁻¹ s⁻¹.

B7: NINA-0444.0128 (antibody, V domains shown)
VH: B1 VH with S104T
VL: B1 VL
In the assay with human factor IX [2], B7 registered a Kd of 206 nM, an off-rate (koff) of 0.0445 s⁻¹ and a kon of 216000 M⁻¹ s⁻¹.

B8: NINA-1091.0128 (antibody, V domains shown)
VH: B1 VH with E57R, S103I
VL: B1 VL
With B8, in the assay with human factor IX [1], binding was put at a Kd of 218 nM, the off-rate (koff) turned out to be 0.0352 s⁻¹ and the kon turned out to be 161000 M⁻¹ s⁻¹.

B9: TINA-0616.0128 (antibody, V domains shown)
VH: B2 VH with V5I, L108I
VL: B1 VL
notes: Monospecific IgG; position is IMGT numbering, not a count on the entry
In the assay with human factor X [4], B9 registered an equilibrium dissociation constant (Kd) of 530 nM, an off-rate constant (koff) of 0.0222 s⁻¹ and an association rate constant (kon) of 41900 M⁻¹ s⁻¹.

B10: NINA-0442.0128 (antibody, V domains shown)
VH: B1 VH with S104Q
VL: B1 VL
In the assay with human factor IX [2], B10 gave a Kd of 242 nM, a koff of 0.0471 s⁻¹ and a kon of 194000 M⁻¹ s⁻¹.

B11: TINA-0203.0128 (antibody, V domains shown)
VH: B2 VH with S84I
VL: B1 VL
notes: Monospecific IgG4PE
In the assay with human factor X [3], B11 came in with a Kd of 880 nM, an off-rate (koff) of 0.0598 s⁻¹ and an on-rate (kon) of 68000 M⁻¹ s⁻¹.

B12: TINA-0638.0128 (antibody, V domains shown)
VH: B2 VH with V5I, Q109M
VL: B1 VL
notes: as for B9
Turning to B12, the Kd in the assay with human factor X [5] was 300 to 3000 nM. Besides, in the assay with human factor X [4], the Kd was 333 nM, the koff came out at 0.0232 s⁻¹ and the on-rate constant (kon) stood at 69900 M⁻¹ s⁻¹.

B13: NINA-0456.0128 (antibody, V domains shown)
VH: B1 VH with S105L
VL: B1 VL
Take B13: in the assay with human factor IX [2], the affinity, expressed as Kd, was 263 nM; the koff amounted to 0.0396 s⁻¹; the on-rate constant (kon) was found to be 151000 M⁻¹ s⁻¹.

B14: TINA-0202.0128 (antibody, V domains shown)
VH: B2 VH with V5I, K12Q
VL: B1 VL
notes: Monospecific IgG4PE
Take B14: in the assay with human factor X [3], the dissociation constant (Kd) stood at 812 nM, the dissociation rate constant (koff) was 0.072 s⁻¹ and the kon worked out at 88700 M⁻¹ s⁻¹. In addition, in the assay with human factor X [4], the Kd was 1380 nM, the dissociation rate constant (koff) was determined as 0.0709 s⁻¹ and the kon came to 51300 M⁻¹ s⁻¹.

B15: NINA-1280.0128 (antibody, V domains shown)
VH: B1 VH with T28R, E57R, S104I, S105K
VL: B1 VL
In the assay with human factor IX [1], B15 had an equilibrium dissociation constant (Kd) of 52.3 nM, a koff of 0.01 s⁻¹ and a kon of 192000 M⁻¹ s⁻¹.

B16: TINA-0214.0128 (antibody, V domains shown)
VH: B2 VH with P14T, K23Q
VL: B1 VL
notes: Monospecific IgG4PE
In the assay with human factor X [3], B16 displayed a Kd of 466 nM, a koff of 0.0558 s⁻¹ and an on-rate constant (kon) of 120000 M⁻¹ s⁻¹.

B17: TINA-0201.0128 (antibody, V domains shown)
VH: B2 VH with V5I
VL: B1 VL
notes: Monospecific IgG4PE
Consider B17, for which, in the assay with human factor X [3], the dissociation constant Kd turned out to be 579 nM, the koff is 0.0502 s⁻¹ and the kon was determined as 86700 M⁻¹ s⁻¹. For the same molecule, in the assay with human factor X [4], binding was characterised by a dissociation constant (Kd) of 816 nM, the dissociation rate constant (koff) came to 0.0482 s⁻¹ and the kon came out at 59000 M⁻¹ s⁻¹.

B18: TINA-0666.0128 (antibody, V domains shown)
VH: B2 VH with V5I, C107I, L108I
VL: B1 VL
notes: Monospecific IgG
Take B18: in the assay with human factor X [4], binding was characterised by a dissociation constant (Kd) of 927 nM, the koff worked out at 0.0417 s⁻¹ and the kon worked out at 44900 M⁻¹ s⁻¹.

B19: NINA-0445.0128 (antibody, V domains shown)
VH: B1 VH with S104V
VL: B1 VL
In the assay with human factor IX [2], B19 came in with a dissociation constant Kd of 267 nM, a koff of 0.0544 s⁻¹ and an on-rate constant (kon) of 204000 M⁻¹ s⁻¹.

B20: NINA-1172.0128 (antibody, V domains shown)
VH: B1 VH with E57R, S104I, S105K
VL: B1 VL
In the case of B20, in the assay with human factor IX [1], the dissociation constant Kd amounted to 76.4 nM, the off-rate (koff) worked out at 0.0171 s⁻¹ and the on-rate constant (kon) came to 225000 M⁻¹ s⁻¹.

B21: NINA-0440.0128 (antibody, V domains shown)
VH: B1 VH with S104N
VL: B1 VL
For B21, in the assay with human factor IX [2], the equilibrium dissociation constant (Kd) turned out to be 289 nM, the koff worked out at 0.0535 s⁻¹ and the on-rate (kon) was 185000 M⁻¹ s⁻¹.

B22: TINA-0210.0128 (antibody, V domains shown)
VH: B2 VH with S84N
VL: B1 VL
notes: Monospecific IgG4PE
As to B22, in the assay with human factor X [3], the Kd worked out at 974 nM, the off-rate constant (koff) is 0.0744 s⁻¹ and the kon came to 76400 M⁻¹ s⁻¹.

B23: TINA-0209.0128 (antibody, V domains shown)
VH: B2 VH with K12Q, M34L, S55T, S57D, S77T, S105A
VL: B1 VL
notes: Monospecific IgG4PE
For B23, in the assay with human factor X [3], binding was characterised by a dissociation constant (Kd) of 1150 nM, the koff came out at 0.0679 s⁻¹ and the kon came to 59000 M⁻¹ s⁻¹.

B24: TINA-0204.0128 (antibody, V domains shown)
VH: B2 VH with K12Q, P14T
VL: B1 VL
notes: Monospecific IgG4PE
In the assay with human factor X [3], B24 returned a Kd of 718 nM, an off-rate (koff) of 0.0785 s⁻¹ and an association rate constant (kon) of 109000 M⁻¹ s⁻¹.

B25: TINA-0211.0128 (antibody, V domains shown)
VH: B2 VH with E82D
VL: B1 VL
notes: Monospecific IgG4PE
In the assay with human factor X [3], B25 yielded an equilibrium dissociation constant (Kd) of 680 nM, a koff of 0.0447 s⁻¹ and an association rate constant (kon) of 65700 M⁻¹ s⁻¹.
